Literature values as cited in paper PMC6417862.

Target: muscle actin (Oryctolagus cuniculus) (UniProt P68135)

cofilin (from UniProt Q03048)
Kd: < 300 nM
